From ChEMBL document CHEMBL1151784, “Antibiotic evaluation and in vivo analysis of alkynyl Coenzyme A antimetabolites in Escherichia coli” (2008)

Key:
[1] = substrate: C#CC(=O)NCCNC(=O)CCNC(=O)[C@H](O)C(C)(C)CO; assay: (§1) Ratio of kcat to Km for Escherichia coli K12 CoaA
[2] = substrate: CC(C)(CO)[C@@H](O)C(=O)NCCC(=O)O; assay: as §1
[3] = substrate: CC(C)(CO)[C@@H](O)C(=O)NCCC(=O)NCCN=[N+]=[N-]; assay: as §1
[4] = substrate: C=CC(=O)NCCNC(=O)CCNC(=O)[C@H](O)C(C)(C)CO; assay: as §1
[5] = substrate: CCCCCNC(=O)CCNC(=O)[C@H](O)C(C)(C)CO; assay: as §1
[6] = substrate: C#CCCCCNC(=O)CCNC(=O)[C@H](O)C(C)(C)CO; assay: as §1
[7] = substrate: CCOC(=O)NCCNC(=O)CCNC(=O)[C@H](O)C(C)(C)CO; assay: as §1
[8] = substrate: CCC(=O)NCCNC(=O)CCNC(=O)[C@H](O)C(C)(C)CO; assay: as §1
[9] = substrate: C=CCNC(=O)CCNC(=O)[C@H](O)C(C)(C)CO; assay: as §1
[10] = substrate: CCC(=O)OCCNC(=O)CCNC(=O)[C@H](O)C(C)(C)CO; assay: as §1
[11] = substrate: C#CCCC(=O)NCCNC(=O)CCNC(=O)[C@H](O)C(C)(C)CO; assay: as §1
[12] = substrate: C#CCNC(=O)CCNC(=O)[C@H](O)C(C)(C)CO; assay: as §1
[13] = substrate: C#CCNC(=O)[C@H](O)C(C)(C)CO; assay: as §1
[14] = substrate: C#CCCCNC(=O)CCNC(=O)[C@H](O)C(C)(C)CO; assay: as §1
[15] = substrate: CCCNC(=O)CCNC(=O)[C@H](O)C(C)(C)CO; assay: as §1
[16] = substrate: C#CCCNC(=O)CCNC(=O)[C@H](O)C(C)(C)CO; assay: as §1
[17] = substrate: C#CC(=O)NCCNC(=O)CCNC(=O)[C@H](O)C(C)(C)CO; assay: (§2) Activity of Escherichia coli K12 CoaA
[18] = substrate: CC(C)(CO)[C@@H](O)C(=O)NCCC(=O)O; assay: as §2
[19] = substrate: CC(C)(CO)[C@@H](O)C(=O)NCCC(=O)NCCN=[N+]=[N-]; assay: as §2
[20] = substrate: C=CC(=O)NCCNC(=O)CCNC(=O)[C@H](O)C(C)(C)CO; assay: as §2
[21] = substrate: CCCCCNC(=O)CCNC(=O)[C@H](O)C(C)(C)CO; assay: as §2
[22] = substrate: C#CCCCCNC(=O)CCNC(=O)[C@H](O)C(C)(C)CO; assay: as §2
[23] = substrate: CCOC(=O)NCCNC(=O)CCNC(=O)[C@H](O)C(C)(C)CO; assay: as §2
[24] = substrate: CCC(=O)NCCNC(=O)CCNC(=O)[C@H](O)C(C)(C)CO; assay: as §2
[25] = substrate: C=CCNC(=O)CCNC(=O)[C@H](O)C(C)(C)CO; assay: as §2
[26] = substrate: CCC(=O)OCCNC(=O)CCNC(=O)[C@H](O)C(C)(C)CO; assay: as §2
[27] = substrate: C#CCCC(=O)NCCNC(=O)CCNC(=O)[C@H](O)C(C)(C)CO; assay: as §2
[28] = substrate: C#CCNC(=O)CCNC(=O)[C@H](O)C(C)(C)CO; assay: as §2
[29] = substrate: C#CCNC(=O)[C@H](O)C(C)(C)CO; assay: as §2
[30] = substrate: C#CCCCNC(=O)CCNC(=O)[C@H](O)C(C)(C)CO; assay: as §2
[31] = substrate: CCCNC(=O)CCNC(=O)[C@H](O)C(C)(C)CO; assay: as §2
[32] = substrate: C#CCCNC(=O)CCNC(=O)[C@H](O)C(C)(C)CO; assay: as §2

B1: Pantothenate kinase (Escherichia coli K-12), P0A6I3 (protein)
chain: MSIKEQTLMTPYLQFDRNQWAALRDSVPMTLSEDEIARLKGINEDLSLEEVAEIYLPLSRLLNFYISSNLRRQAVLEQFLGTNGQRIPYIISIAGSVAVGKSTTARVLQALLSRWPEHRRVELITTDGFLHPNQVLKERGLMKKKGFPESYDMHRLVKFVSDLKSGVPNVTAPVYSHLIYDVIPDGDKTVVQPDILILEGLNVLQSGMDYPHDPHHVFVSDFVDFSIYVDAPEDLLQTWYINRFLKFREGAFTDPDSYFHNYAKLTKEEAIKTAMTLWKEINWLNLKQNILPTRERASLILTKSANHAVEEVRLRK
B1 was tested, and the kcat/Km [1] was 11.1 mM⁻¹ min⁻¹, the kcat/Km [2] was 21.1 mM⁻¹ min⁻¹ and the kcat/Km [3] was 16.1 mM⁻¹ min⁻¹. It also gave a kcat/Km [4] of 11 mM⁻¹ min⁻¹, a kcat/Km [5] of 24.6 mM⁻¹ min⁻¹ and a kcat/Km [6] of 18 mM⁻¹ min⁻¹. For the same protein, the kcat/Km [7] was 18.3 mM⁻¹ min⁻¹, the kcat/Km [8] was 15.4 mM⁻¹ min⁻¹ and the kcat/Km [9] was 22.9 mM⁻¹ min⁻¹. It also gave a kcat/Km [10] of 23.5 mM⁻¹ min⁻¹, a kcat/Km [11] of 11.7 mM⁻¹ min⁻¹ and a kcat/Km [12] of 21.4 mM⁻¹ min⁻¹. For the same protein, the kcat/Km [13] was 1.62 mM⁻¹ min⁻¹, the kcat/Km [14] was 17.9 mM⁻¹ min⁻¹ and the kcat/Km [15] was 24.6 mM⁻¹ min⁻¹. It also gave a kcat/Km [16] of 23.8 mM⁻¹ min⁻¹, a Km [17] of 48.5 µM and a Vmax [17] of 0.22 µM/s. For the same protein, the kcat [17] was 0.54 min⁻¹, the Km [18] was 35.8 µM and the Vmax [18] was 0.31 µM/s. For the same protein, the kcat [18] was 0.76 min⁻¹, the Km [19] was 43.5 µM and the Vmax [19] was 0.28 µM/s. For the same protein, the kcat [19] was 0.69 min⁻¹, the Km [20] was 58 µM and the Vmax [20] was 0.26 µM/s. The kcat [20] was 0.64 min⁻¹, the Km [21] was 34 µM and the Vmax [21] was 0.34 µM/s. For the same protein, the kcat [21] was 0.84 min⁻¹, the Km [22] was 40 µM and the Vmax [22] was 0.29 µM/s. It also gave a kcat [22] of 0.72 min⁻¹, a Km [23] of 33.7 µM and a Vmax [23] of 0.25 µM/s. For the same protein, the kcat [23] was 0.62 min⁻¹, the Km [24] was 34.6 µM and the Vmax [24] was 0.22 µM/s. The kcat [24] was 0.53 min⁻¹, the Km [25] was 41.2 µM and the Vmax [25] was 0.38 µM/s. The kcat [25] was 0.94 min⁻¹, the Km [26] was 27.8 µM and the Vmax [26] was 0.26 µM/s. For the same protein, the kcat [26] was 0.65 min⁻¹, the Km [27] was 47.8 µM and the Vmax [27] was 0.23 µM/s. For the same protein, the kcat [27] was 0.56 min⁻¹, the Km [28] was 36 µM and the Vmax [28] was 0.31 µM/s. For the same protein, the kcat [28] was 0.77 min⁻¹, the Km [29] was 396 µM and the Vmax [29] was 0.26 µM/s. The kcat [29] was 0.64 min⁻¹, the Km [30] was 40.3 µM and the Vmax [30] was 0.29 µM/s. It also gave a kcat [30] of 0.72 min⁻¹, a Km [31] of 36.9 µM and a Vmax [31] of 0.37 µM/s. The kcat [31] was 0.91 min⁻¹, the Km [32] was 34 µM and the Vmax [32] was 0.33 µM/s. The kcat [32] was 0.81 min⁻¹.
